Experimental data reported in the supplement of paper PMC9732359.
± gives the uncertainty stated by the source.

Experiment: protein stability index of a GFP-peptide fusion (yeast GPS) (PSI 1-4); higher = more stable; sorted into four equal gates, so the index is relative within each strain
Procedure, shortened: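 The protein stability index combines read frequencies across sorting gates, each weighted by its gate number and then summed. To obtain those frequencies, a pooled yeast library of GFP fusions to tiled 17-residue yeast protein peptides, on a plasmid also expressing Cherry, was grown to mid-log phase in leucine-free medium. The cells were sorted into four equal gates by GFP/Cherry ratio before plasmid amplification by PCR and Illumina sequencing.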

Sequence	protein stability index (doa10∆)	protein stability index (pdr5∆)	protein stability index (san1∆)	protein stability index (ubr1∆)
EYSDNFPVSLSQPSKKS [SIR4]	3.08 ± 0.045	3.05 ± 0.046	2.98 ± 0.04	3.1 ± 0.031
DLNHVTEELQTQYATSQ [SMC2]	3.11 ± 0.19	3.17 ± 0.12	3.16 ± 0.1	3.44 ± 0.2
GISRDIKALQDSLFKDV [YML103C/NUP188]	2.19 ± 0.077	1.99 ± 0.063	2.07 ± 0.089	1.77 ± 0.042
SYVNYRHMALLVDVMTT [RPO21]	1.23 ± 0.049	1.25 ± 0.049	1.2 ± 0.062	1.18 ± 0.034
QNIMTLPDGKNGNLEEE [MED6]	3.37 ± 0.064	3.23 ± 0.11	3.37 ± 0.056	3.31 ± 0.091
NDNEGKHISASIDNDFS [YAR002W/NUP60]	3.05 ± 0.089	3.04 ± 0.071	3.19 ± 0.099	2.92 ± 0.067
LTFVSVDEELGPSIYKT [SCL1]	2.37 ± 0.065	1.94 ± 0.05	3.02 ± 0.054	2.99 ± 0.067
QSEHLEAVVDQDVQRTC [FAS1]	3.47 ± 0.25	3.36 ± 0.14	3.49 ± 0.094	3.38 ± 0.095
IQRETLLPTNNGQPLNQ [GRR1]	2.53 ± 0.072	2.91 ± 0.071	2.64 ± 0.06	2.65 ± 0.057
FITFSLDDWISIGYETE [IRR1]	2.56 ± 0.078	2.61 ± 0.088	2.65 ± 0.084	2.6 ± 0.071
AFSSVEHIIRDVHNGYI [COB]	3.16 ± 0.23	3 ± 0.26	3.37 ± 0.24	2.99 ± 0.16
LVSLFEDTNLAAIHAKR [HHT1]	2.9 ± 0.17	2.67 ± 0.17	2.56 ± 0.12	2.81 ± 0.063
SRCHLVTKDTKKYSSKN [SRP68]	3.04 ± 0.092	2.8 ± 0.1	2.65 ± 0.11	3.12 ± 0.072
EKKGIVQASVTSSTHER [RET1]	3.28 ± 0.19	3.1 ± 0.23	3.45 ± 0.15	3.24 ± 0.11
TVLETLLSDVNQNQRNV [SMC3]	3.23 ± 0.13	2.94 ± 0.057	3.01 ± 0.085	3.02 ± 0.082
SMFLRIDYSNSQIRLYA [RGR1]	2.9 ± 0.076	2.44 ± 0.066	2.4 ± 0.068	2.44 ± 0.043
FHSTYLMNGVKPFKSFL [FAS1]	2.65 ± 0.12	2.55 ± 0.078	3.33 ± 0.15	2.87 ± 0.068
QELRKKVNPNIMNMIEN [SMC2]	2.45 ± 0.13	2.72 ± 0.11	2.37 ± 0.13	2.47 ± 0.062
ILLRYHHNDISNDSQSH [YCG1]	1.65 ± 0.15	1.28 ± 0.13	1.96 ± 0.2	1.51 ± 0.081
LNIGLGAVGLKDLTLCR [YCS4]	2.3 ± 0.079	2.41 ± 0.1	2.15 ± 0.095	2.53 ± 0.056
KRFLILQGEVENIAQMK [SMC4]	3.05 ± 0.29	2.98 ± 0.14	3.2 ± 0.14	2.79 ± 0.098
LREAPADYWTHAYRDVL [SNF6]	2.55 ± 0.12	2.7 ± 0.1	3.42 ± 0.17	2.38 ± 0.061
NKGELETQPGCNEEQTL [RPO31]	3.21 ± 0.16	3.38 ± 0.12	3.21 ± 0.2	3.2 ± 0.082
MSLQHEKVTIAPLVLLS [RPN8]	1.19 ± 0.035	1.28 ± 0.032	1.2 ± 0.068	1.21 ± 0.031
DNMSEEQWLRQFEVSDD [SNF2]	3.46 ± 0.099	3.22 ± 0.094	3.16 ± 0.12	3.36 ± 0.079
LINEILLKSNDPLLSLY [RGR1]	2.04 ± 0.046	2.15 ± 0.043	1.87 ± 0.077	2.13 ± 0.035

Sequence	protein stability index (doa10∆)	protein stability index (pdr5∆)	protein stability index (san1∆)	protein stability index (ubr1∆)
KFQLKKVLCLAVAVGNV [RPL1A]	1.63 ± 0.047	1.25 ± 0.051	1.27 ± 0.09	1.15 ± 0.033
SFDFGNENEDEDEGTLN [ARP9]	3.56 ± 0.14	3.38 ± 0.25	3.41 ± 0.1	
RNVGKTLVNKSTGLKSA [RPS1A]	2.81 ± 0.098	2.72 ± 0.097	2.59 ± 0.12	2.96 ± 0.086
GRDKHALSLLYHLLNYD [SSN3]	2.91 ± 0.074	2.92 ± 0.057	2.94 ± 0.054	3.04 ± 0.064
GGLKNGVLYQGNIQISE [DIS3]	3.25 ± 0.098	3.27 ± 0.085	2.9 ± 0.072	3.17 ± 0.065
QDVLQMLGRAGRPRYDT [BRR2]	3.41 ± 0.21	2.56 ± 0.23	3.43 ± 0.14	2.81 ± 0.28
EKVRDYENSISKDLRSV [IRR1]	2.25 ± 0.093	1.98 ± 0.094	1.82 ± 0.082	2.03 ± 0.051
VTEETTKQIQSVRIDGR [SIR4]	2.31 ± 0.086	3.06 ± 0.077	2.83 ± 0.066	2.12 ± 0.074
IVVAMTGKDCVAIACDL [PUP3]	1.38 ± 0.062	1.47 ± 0.07	2.08 ± 0.066	2.31 ± 0.046
LQKVENQTIKEAKDAII [YIL149C/MLP2]	3.05 ± 0.046	3.18 ± 0.047	3.04 ± 0.045	3.13 ± 0.034
MPPKFDPNEVKYLYLRA [RPL12A]	2 ± 0.093	2.09 ± 0.17	2.98 ± 0.2	1.78 ± 0.079
ISGYKKFSSTSRYMQYN [RPT1]	1.26 ± 0.18	1.59 ± 0.15	1.56 ± 0.2	1.7 ± 0.11
SAKMILLSDPTITIKSY [PRP8]	2.23 ± 0.078	1.91 ± 0.09	3.1 ± 0.099	2.92 ± 0.069
RNSNPENTVGLISGAGA [RPN10]	2.93 ± 0.11	2.81 ± 0.074	2.6 ± 0.067	2.06 ± 0.069
KEPRLVIVTDPRLDAQA [RPS0B]	3.41 ± 0.25	3.42 ± 0.17		2.61 ± 0.16
VTRTHGNSGVVRATFRN [RPL33A]	2.6 ± 0.075	2.82 ± 0.088	2.56 ± 0.092	2.86 ± 0.073
SKEGQYKAKIKELENNL [YIL149C/MLP2]	2.75 ± 0.12	1.49 ± 0.053	2.18 ± 0.13	3.03 ± 0.069
LKTFNGSLALLKLSMAD [POP4]	2.33 ± 0.046	2.33 ± 0.067	2.45 ± 0.063	2.36 ± 0.036
NSLLLDSTPEEVSCKLL [YML103C/NUP188]	2.67 ± 0.081	3.16 ± 0.08	2.97 ± 0.085	2.71 ± 0.08
TIRQIILPDSLNLDSLL [SMD1]	3.03 ± 0.076	2.67 ± 0.065	3.11 ± 0.055	2.7 ± 0.046
SDSLGPDTSNEICDLAY [SRB2]	2.95 ± 0.065	3.17 ± 0.064	3.29 ± 0.065	3.31 ± 0.049
GEMVGVLAAQSIGEPAT [RPO21]	2.36 ± 0.087	2.55 ± 0.073	2.38 ± 0.066	2.58 ± 0.088
LWNQWLKLNTSLPSKLT [SRP68]	1.45 ± 0.049	1.51 ± 0.052	1.36 ± 0.11	1.83 ± 0.037
GNVLINDTLPDEISPEL [SNU114]	2.99 ± 0.089	2.77 ± 0.097	3.32 ± 0.081	2.71 ± 0.17
TVSRAYGGSRCANCVKE [RPL34A]	2.4 ± 0.071	2.96 ± 0.068	2.43 ± 0.1	2.19 ± 0.043
ALSGNEGDASPFTDITV [RPB2]	2.99 ± 0.14	3.12 ± 0.075	3.12 ± 0.099	3.1 ± 0.15
